Source: publication PMC6774351

Molecular target: Alexa488-labelled NLRP3 (human)
Experiment: MST

- Kd: 78.9 nM
Substance: NEK7 (wild type; NEK7 monomer) (from UniProt Q8TDX7 1-302) (enzyme)
